Experimental findings from publication PMC2248580 (BMC Structural Biology, 2007) are described below.

The target in the test is T1, human activated blood coagulation factor X (FXa) (human).
T1 construct: also called factor Xa; Stuart factor
As to the kind of experiment: SPR; […]; 37°C; HBS (10 mM Hepes, 150 mM NaCl, 5 mM CaCl2, 0.005% P20, pH 7.4); Langmuir fit; […]. As to conditions: both partners purified. Background: In SPR one partner is held on a chip, and binding of the other changes the refractive index at the surface.

T1 sequence (P00742 whole entry): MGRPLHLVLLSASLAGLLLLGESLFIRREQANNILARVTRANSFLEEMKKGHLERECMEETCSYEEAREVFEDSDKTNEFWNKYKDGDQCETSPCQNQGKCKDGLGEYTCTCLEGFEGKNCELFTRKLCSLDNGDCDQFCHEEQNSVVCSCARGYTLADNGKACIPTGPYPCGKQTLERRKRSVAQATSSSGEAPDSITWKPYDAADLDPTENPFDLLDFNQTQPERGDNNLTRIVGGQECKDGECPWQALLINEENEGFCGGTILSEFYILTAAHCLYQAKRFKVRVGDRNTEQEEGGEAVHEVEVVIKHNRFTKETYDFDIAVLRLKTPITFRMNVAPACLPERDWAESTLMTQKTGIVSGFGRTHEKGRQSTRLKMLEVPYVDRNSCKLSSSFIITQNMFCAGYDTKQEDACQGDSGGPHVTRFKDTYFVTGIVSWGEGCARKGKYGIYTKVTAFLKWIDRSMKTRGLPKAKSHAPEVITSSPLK

B1: Vbb, the PLA2 from Vipera berus berus venom (enzyme)
chain: NLFQFGNMINHMVGKHAVWSYLSYGCYCGWGGQGKPQDATDRCCFVHDCCYGRANGCDPKLSTYSYNFQNGNIVCGNKYGCLRHICECDRVAAICFQKNMNTYNKKYKNYSSSNCQENSDKC
modifications: γ-carboxyglutamic acid in the Gla domain (residues 1–39)
The Kd is the equilibrium constant for the complex coming apart. Usually koff stands for a measure of how fast the partners let go of each other. A high value points to a short-lived complex. In general, kon refers to the rate constant with which the complex forms. For B1, the affinity, expressed as Kd, was 830 ± 15 nM; the koff is 0.025 s⁻¹; the kon is 30000 M⁻¹ s⁻¹.

B2: VRV-PLVIII, the PLA2 from Daboia russelli pulchella venom (enzyme)
chain: SLLEFGKMILEETGKLAIPSYSSYGCYCGWGGKGTPKDATDRCCFVHDCCYGNLPDCNPKSDRYKYKRVNGAIVCEKGTSCENRICECDKAAAICFRQNLNTYSKKYMLYPDFLCKGELKC
B2: the dissociation constant (Kd) was found to be 578 ± 15 nM, the koff turned out to be 0.026 s⁻¹ and the on-rate constant (kon) worked out at 45000 M⁻¹ s⁻¹.
